Here are results for two sequences from article PMC5640589.

The data set has as its system T1, His6-SACE_3446B (Saccharopolyspora erythraea A226), ORF:3b7da887.
T1 sequence: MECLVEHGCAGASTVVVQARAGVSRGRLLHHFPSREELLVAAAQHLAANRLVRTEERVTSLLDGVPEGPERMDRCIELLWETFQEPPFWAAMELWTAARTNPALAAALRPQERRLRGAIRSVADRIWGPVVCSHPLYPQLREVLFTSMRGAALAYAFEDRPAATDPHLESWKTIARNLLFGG
Description: EMSA. To be noted: 10 mM Tris pH 7.5, 5 mM MgCl2, 50 mM EDTA ([…].

With “GCGTCCCCCTACTCGACGACCACGCAATGGGCGAACAATATAGGAAGGATCAAGAGGTTGACATCGCCTCGTCGAGCCAACGAACCTGTGAACATCTGCATGTTGACAAGATCAACGGCGGCTACCTACTGTGGTGGCCCAGTGACGGGTTGCCGCACATCGCGCTGGGGAGATTCTTTGAATTTCGCCCGTAGCACCGACCTGGAAAGCGAGCAAATGCTCCG (double strand) [eryAI promoter]”, the binding result is reported as “no binding”.

For the sequence “GCGAGTGTCCGTTCGAGTGGCGGCTTGCGCCCGATGCTAGTCGCGGTTGATCGGCGATCGCAGGTGCACGCGGTCGATCTTGACGGCTGGCGAGAGGTGCGGGGAGGATCTGACCGACGCGGTCCACACGTGGCACCGCGATGCTGTTGTGGGCTGGACAATCGTGCCGGTTGGTAGGATCCAGCG (double strand) [ermE promoter]”, the binding entry was “no binding”.
